Literature values, collected in article PMC6551275.

Target: UBQLN2 UBA (Homo sapiens) (UniProt Q9UHD9)
Sequence (Q9UHD9 578-624): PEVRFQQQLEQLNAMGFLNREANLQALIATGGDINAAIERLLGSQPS

Sequence of UBQLN2 UBL (Q9UHD9 33-107): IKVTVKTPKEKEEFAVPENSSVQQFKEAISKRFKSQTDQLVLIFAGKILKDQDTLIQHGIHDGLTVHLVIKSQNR

Kd: 175 µM
Substance: UBQLN2 UBL (from UniProt Q9UHD9)
